B1: Erv2p (Saccharomyces cerevisiae S288C) (protein)
chain: MKQIVKRSHAIRIVAALGIIGLWMFFSSNELSIATPGLIKAKSGIDEVQGAAAEKNDARLKEIEKQTIMPLMGDDKVKKEVGRASWKYFHTLLARFPDEPTPEEREKLHTFIGLYAELYPCGECSYHFVKLIEKYPVQTSSRTAAAMWGCHIHNKVNEYLKKDIYDCATILEDYDCGCSDSDGKRVSLEKEAKQHG
B2: Erv2p, wild type (enzyme, yeast, UniProt Q12284 1-196, looked up)
chain: PGLIKAKSGIDEVQGAAAEKNDARLKEIEKQTIMPLMGDDKVKKEVGRASWKYFHTLLARFPDEPTPEEREKLHTFIGLYAELYPCGECSYHFVKLIEKYPVQTSSRTAAAMWGCHIHNKVNEYLKKDIYDCATILEDYDCGCSDSDGKRVSLEKEAKQHG

How the values were obtained:
oxygen electrode = substrate: OC(CS)C(O)CS; test: oxygen electrode; type: biochemical, Saccharomyces cerevisiae; conditions: O2 as co-substrate, 50 mM Tris/HCl, 0.3 mM EDTA, pH 7.5, 25 °C
cross-linking = target: the molecule itself; test: cross-linking

| Protein | Km (oxygen electrode) [mM] | kcat (oxygen electrode) [s⁻¹] | stoichiometry N (cross-linking) |
| --- | --- | --- | --- |
| B1 | 7 ± 1 | 3.83 ± 0.13 | – |
| B2 | – | – | 2 |

— publication PMC3254808 (Biochemistry, 2011)
